Results from patent publication US20240309103A1 (Regeneron, published 2024).

Legend:
[1] = target: mouse NPR1 extracellular domain expressed with a C-terminal myc-myc-hexahistidine (mNPR1-MMH) (mouse, UniProt P18293 29-469); assay: SPR, mAb captured, 37 C
Outline: (§1)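 Read-out is KD from real-time SPR (Biacore 4000). Purified mAbs sat on an anti-human Fc capture surface (mouse mAb or goat anti-Fcγ polyclonal) on CM5. Runs used HBS-ET: 10 mM HEPES, 150 mM NaCl, 3 mM EDTA, 0.05% Tween-20, pH 7.4.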

[2] = target: T1, human NPR1 extracellular domain expressed with a C-terminal myc-myc-hexahistidine (hNPR1-MMH) (human, UniProt P16066 33-473); assay: SPR, mAb captured, 37 C
T1 construct: also called hNPR.mmh; monomeric human NPR1
Outline: as §1

[3] = target: T2, monkey NPR1 extracellular domain expressed with a C-terminal myc-myc-hexahistidine (mfNPR1-MMH) (monkey, UniProt P16066 33-473 (human entry)); assay: SPR, mAb captured, 37 C
T2 construct: also called monomeric monkey NPR1
T2 chain: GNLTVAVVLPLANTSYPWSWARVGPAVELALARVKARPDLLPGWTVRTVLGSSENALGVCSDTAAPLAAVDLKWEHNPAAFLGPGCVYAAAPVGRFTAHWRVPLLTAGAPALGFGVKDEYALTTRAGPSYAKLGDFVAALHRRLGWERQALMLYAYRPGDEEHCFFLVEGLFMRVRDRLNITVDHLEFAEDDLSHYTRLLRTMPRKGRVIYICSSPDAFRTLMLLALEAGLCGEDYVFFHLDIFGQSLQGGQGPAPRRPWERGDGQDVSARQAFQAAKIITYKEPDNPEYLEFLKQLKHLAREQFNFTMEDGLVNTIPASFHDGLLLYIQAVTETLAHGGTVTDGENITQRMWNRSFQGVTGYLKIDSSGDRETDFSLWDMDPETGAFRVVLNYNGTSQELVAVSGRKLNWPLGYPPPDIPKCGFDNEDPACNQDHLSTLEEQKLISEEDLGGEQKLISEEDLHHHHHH
Outline: as §1

[4] = target: T3, human NPR1 extracellular domain expressed with a C-terminal mouse IgG2a (hNPR1-mFc) (human); assay: SPR, mAb captured, 37 C
T3 construct: also called hNPR1-Fc; human NPR1 dimer
T3 chain: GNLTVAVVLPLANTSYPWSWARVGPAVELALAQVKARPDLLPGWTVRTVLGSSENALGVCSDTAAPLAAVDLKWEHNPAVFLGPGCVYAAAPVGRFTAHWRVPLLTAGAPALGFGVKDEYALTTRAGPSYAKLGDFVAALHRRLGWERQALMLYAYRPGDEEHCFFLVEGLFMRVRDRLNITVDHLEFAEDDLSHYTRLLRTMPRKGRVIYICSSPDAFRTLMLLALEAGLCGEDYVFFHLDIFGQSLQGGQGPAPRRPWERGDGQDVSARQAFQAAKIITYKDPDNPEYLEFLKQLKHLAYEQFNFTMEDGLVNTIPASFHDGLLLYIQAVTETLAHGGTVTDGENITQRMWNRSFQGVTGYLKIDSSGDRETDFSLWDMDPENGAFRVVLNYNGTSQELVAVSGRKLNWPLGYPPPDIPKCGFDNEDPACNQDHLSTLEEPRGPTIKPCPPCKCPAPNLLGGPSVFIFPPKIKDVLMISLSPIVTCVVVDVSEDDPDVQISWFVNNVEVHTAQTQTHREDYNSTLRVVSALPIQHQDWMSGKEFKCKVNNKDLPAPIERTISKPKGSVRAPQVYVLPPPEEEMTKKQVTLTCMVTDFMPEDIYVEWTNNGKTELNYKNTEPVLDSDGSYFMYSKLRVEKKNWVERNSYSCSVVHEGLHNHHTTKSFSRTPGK
Outline: as §1

[5] = target: T4, human NPR1 on HEK293/hNPR1.myc.DDK cells (no hANP added) (human, UniProt P16066 33-1061); assay: cell-based or functional assay
T4 sequence (looked up): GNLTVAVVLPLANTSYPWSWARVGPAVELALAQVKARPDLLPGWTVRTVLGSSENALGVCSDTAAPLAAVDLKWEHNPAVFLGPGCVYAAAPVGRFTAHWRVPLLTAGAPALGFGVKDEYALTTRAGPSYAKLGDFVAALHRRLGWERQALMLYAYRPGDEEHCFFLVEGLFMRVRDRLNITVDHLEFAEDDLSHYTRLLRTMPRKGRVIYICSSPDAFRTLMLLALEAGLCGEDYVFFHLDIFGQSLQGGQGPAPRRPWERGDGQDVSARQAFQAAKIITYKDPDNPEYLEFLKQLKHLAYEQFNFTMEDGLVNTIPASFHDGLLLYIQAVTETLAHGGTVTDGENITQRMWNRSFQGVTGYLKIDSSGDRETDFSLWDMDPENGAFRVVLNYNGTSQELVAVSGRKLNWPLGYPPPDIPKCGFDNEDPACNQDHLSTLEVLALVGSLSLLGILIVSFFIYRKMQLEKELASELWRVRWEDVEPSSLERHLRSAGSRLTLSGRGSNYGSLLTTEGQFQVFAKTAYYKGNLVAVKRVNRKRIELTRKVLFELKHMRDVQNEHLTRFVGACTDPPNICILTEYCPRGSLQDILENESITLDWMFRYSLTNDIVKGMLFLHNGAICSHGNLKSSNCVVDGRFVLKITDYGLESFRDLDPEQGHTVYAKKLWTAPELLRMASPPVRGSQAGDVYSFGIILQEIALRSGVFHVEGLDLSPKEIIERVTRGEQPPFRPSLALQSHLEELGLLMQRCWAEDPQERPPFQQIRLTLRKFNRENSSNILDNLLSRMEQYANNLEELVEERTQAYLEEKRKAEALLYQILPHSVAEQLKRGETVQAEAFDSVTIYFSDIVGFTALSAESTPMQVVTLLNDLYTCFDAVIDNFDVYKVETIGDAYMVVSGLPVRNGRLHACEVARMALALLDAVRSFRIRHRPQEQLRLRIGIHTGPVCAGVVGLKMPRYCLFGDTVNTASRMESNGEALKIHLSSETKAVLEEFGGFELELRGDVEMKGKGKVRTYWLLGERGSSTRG

Chain of mouse NPR1 extracellular domain expressed with a C-terminal myc-myc-hexahistidine (mNPR1-MMH) (P18293 other isoform, or with tags, fused parts or gaps): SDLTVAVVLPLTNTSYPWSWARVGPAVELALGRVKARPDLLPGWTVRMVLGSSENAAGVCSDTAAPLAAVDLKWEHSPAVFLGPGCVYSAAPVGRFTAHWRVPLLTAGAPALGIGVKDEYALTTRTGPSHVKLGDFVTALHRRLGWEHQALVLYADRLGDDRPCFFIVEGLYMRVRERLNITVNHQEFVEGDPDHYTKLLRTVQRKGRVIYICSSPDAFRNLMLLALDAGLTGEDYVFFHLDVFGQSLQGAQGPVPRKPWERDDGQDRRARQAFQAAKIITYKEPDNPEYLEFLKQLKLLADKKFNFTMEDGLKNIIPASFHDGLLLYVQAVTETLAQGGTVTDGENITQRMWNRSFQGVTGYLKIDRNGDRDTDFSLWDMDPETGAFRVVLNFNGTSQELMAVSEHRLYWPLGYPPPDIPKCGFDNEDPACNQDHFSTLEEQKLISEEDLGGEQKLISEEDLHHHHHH

| Binder | 100 nM Ag Bound (RU) [1] | 100 nM Ag Bound (RU) [2] | Kd [2] | koff [2] | kon [2] | t½ [2] | 100 nM Ag Bound (RU) [3] | Kd [3] | koff [3] | kon [3] | t½ [3] | 100 nM Ag Bound (RU) [4] | Kd [4] | koff [4] | kon [4] | t½ [4] | EC50 of Ca2+ flux activation, Expt I [5] | EC50 of Ca2+ flux activation, Expt II [5] |
| --- | --- | --- | --- | --- | --- | --- | --- | --- | --- | --- | --- | --- | --- | --- | --- | --- | --- | --- |
| mAb22035 (antibody, V domains shown) VH: EVQLVESGGGLVQPGRSLRLSCAASGFTFDDYAMHWVRQAPGKGLEWVSGISWNSGTIGYADSVKGRFTMSRDNAKNSLYLQMNSLRPEDTALYYCAKDMGVSLALWGAFDIWGQGTMVTVSS VL: DIQMTQSPSSLSASVGDKVTITCRASQNIRTYLNWYQQKPGKAPKVLISTASSLQSGVPSRFSGSGSGTDFTLTISSLQPEDFAVFYCQQSFGIPRTFGQGTKVEIK | 1 RU | 284 RU | 1.3 nM | 0.000312 s⁻¹ | 240000 M⁻¹ s⁻¹ | 37.1 min | 319 RU | 0.702 nM | 0.000374 s⁻¹ | 532000 M⁻¹ s⁻¹ | 30.9 min | 257 RU | 0.2 nM | 0.000127 s⁻¹ | 636000 M⁻¹ s⁻¹ | 90.8 min | 83.7 to 384 nM | > 200 nM |
| mAb22033 (antibody, V domains shown) VH: QVQLVQSGAEVKKPGASVTVSCKASGYTFTDYYMHWVRQAPGQGLEWMGWIKPNSGGTNSAQRFQGRITMTWDTSISTAYMELSRLRSDDTAVYYCSRGGPVMNYYYYYGMDVWGQGTTVTVSS VL: NIQMTQSPSSLSASVGDRVTITCRASQSIDSYLNWYQQKPGKAPKLLIYVASSLQSGVPSRFSGSGSGKDFTLTISSLQPEDFATYYCQQSYSIPTFGQGTRLEIK | 1 RU | 52 RU | 136 nM | 0.000819 s⁻¹ | 6030 M⁻¹ s⁻¹ | 14.1 min | 131 RU | 27.8 nM | 0.000697 s⁻¹ | 25100 M⁻¹ s⁻¹ | 16.6 min | 75 RU | 3.56 nM | 0.000131 s⁻¹ | 36800 M⁻¹ s⁻¹ | 88.2 min | 83.7 to 384 nM | 41.6 nM |
